The record followed here is PMC9464622 (2022).

The target in this test is T1, LL-37 (Homo sapiens, UniProt P49913).
T1 chain: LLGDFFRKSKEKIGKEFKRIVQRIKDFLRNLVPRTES
As to the kind of experiment: tryptophan fluorescence.

B1: rfhSP-A trimeric recombinant fragment (protein)
chain: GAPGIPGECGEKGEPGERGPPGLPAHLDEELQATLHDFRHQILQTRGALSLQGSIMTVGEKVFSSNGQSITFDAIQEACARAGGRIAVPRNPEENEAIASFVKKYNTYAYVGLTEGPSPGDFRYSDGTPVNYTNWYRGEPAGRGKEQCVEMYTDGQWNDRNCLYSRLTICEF
For B1, the Kd came to 1.22 nM.

The term Kd denotes a measure of binding affinity in units of concentration. Read a low Kd as higher affinity.
